Reference: PMC4883682, “STIM1 activation is regulated by a 14 amino acid sequence adjacent to the CRAC activation domain” (AIMS biophysics, 2016)

B1: STIM1(del344-448)-mApple (natural protein, human, UniProt Q13586 23-685, looked up)
chain: LSHSHSEKATGTSSGANSEESTAAEFCRIDKPLCHSEDEKLSFEAVRNIHKLMDDDANGDVDVEESDEFLREDLNYHDPTVKHSTFHGEDKLISVEDLWKAWKSSEVYNWTVDEVVQWLITYVELPQYEETFRKLQLSGHAMPRLAVTNTTMTGTVLKMTDRSHRQKLQLKALDTVLFGPPLLTRHNHLKDFMLVVSIVIGVGGCWFAYIQNRYSKEHMKKMMKDLEGLHRAEQSLHDLQERLHKAQEEHRTVEVEKVHLEKKLRDEINLAKQEAQRLKELREGTENERSRQKYAEEELEQVREALRKAEKELESHSSWYASLVAALNIDPSWMGSTRPNPAHFIMTDDVDDMDEEIVSPLSMQSPSLQSSVRQRLTEPQHGLGSQRDLTHSDSESSLHMSDRQRVAPKPPQMSRAADEALNAMTSNGSHRLIEGVHPGSLVEKLPDSPALAKKALLALNHGLDKAHSLMELSPSAPPGGSPHLDSSRSHSPSSPDPDTPSPVGDSRALQASRNTRIPHLAGKKAVAEEDNGSIGEETDSSPGRKKFPLKIFKKPLKK
notes: signal peptide in the construct; source: COS7 cells, transiently transfected (Lipofectamine 2000), in live cells; not shown: mApple, C-terminal, kept
B2: STIM1(del302-462)-mApple (natural protein, human, UniProt Q13586 23-685, looked up)
chain: LSHSHSEKATGTSSGANSEESTAAEFCRIDKPLCHSEDEKLSFEAVRNIHKLMDDDANGDVDVEESDEFLREDLNYHDPTVKHSTFHGEDKLISVEDLWKAWKSSEVYNWTVDEVVQWLITYVELPQYEETFRKLQLSGHAMPRLAVTNTTMTGTVLKMTDRSHRQKLQLKALDTVLFGPPLLTRHNHLKDFMLVVSIVIGVGGCWFAYIQNRYSKEHMKKMMKDLEGLHRAEQSLHDLQERLHKAQEEHRTVEVEKVHLEKKLRDEINLAKQEAQRLKSTRPNPAHFIMTDDVDDMDEEIVSPLSMQSPSLQSSVRQRLTEPQHGLGSQRDLTHSDSESSLHMSDRQRVAPKPPQMSRAADEALNAMTSNGSHRLIEGVHPGSLVEKLPDSPALAKKALLALNHGLDKAHSLMELSPSAPPGGSPHLDSSRSHSPSSPDPDTPSPVGDSRALQASRNTRIPHLAGKKAVAEEDNGSIGEETDSSPGRKKFPLKIFKKPLKK
notes: as for B1

Target: the molecule itself
Experiment: cross-linking; chemical crosslinking with dithiobis(succinymidyl propionate); constructs separately expressed; unstimulated state (Supplemental Figure S2)

Protein | stoichiometry N
B1 | 2
B2 | 2
